Measured values: patent US20160208003A1 (AFFITECH RESEARCH, published 2016)
Substitutions are numbered along the chain they refer to. Read-outs that look alike come from different tables or passages of the source.

Experiments:
[1] = biological target: T1, human CC chemokine receptor 4 (CCR4) (human, UniProt P51679 1-360); experiment: flow cytometry, saturation titration of scFv cross-linked via myc-tag on DT-40 CCR4+ cells; one site-specific binding fit
T1 construct: whole, on cells; Always presented on cells; also called CD194; human CCR4
T1 sequence (looked up): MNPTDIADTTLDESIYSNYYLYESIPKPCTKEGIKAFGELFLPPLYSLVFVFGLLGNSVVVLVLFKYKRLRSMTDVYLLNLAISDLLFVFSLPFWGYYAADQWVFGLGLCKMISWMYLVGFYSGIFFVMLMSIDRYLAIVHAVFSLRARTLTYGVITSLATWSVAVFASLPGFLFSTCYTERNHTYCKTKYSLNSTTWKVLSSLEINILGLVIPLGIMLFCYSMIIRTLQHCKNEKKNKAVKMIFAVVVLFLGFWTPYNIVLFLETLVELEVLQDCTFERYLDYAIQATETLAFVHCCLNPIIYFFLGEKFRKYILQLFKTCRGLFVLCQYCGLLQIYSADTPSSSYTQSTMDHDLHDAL
Experimental: DT 40 and CCRF-CEM cells were cultured as described in Example 2. The DT40 CCR4+ and DT40 (CCR4−) cells were harvested from culture flasks, washed 2 times with PBS (400×g, 5 min, 4° C.) and resuspended in PBS containing 0.2% BSA and 0.09% NaN₃. 1×10⁵ cells per well were aliquoted into V-shaped 96-well plates (Greiner Bio-One, Frikenhausen, Germany). […] […] Cells were washed, resuspended in 200 μl PBS with 0.2% BSA and 0.09% NaN₃, and transferred to a U-shaped 96 well Costar (Corning, Schiphol-Rijik, The Netherlands) plate for flow cytometry using an Easy Cyte device (Guava Technologies, Hayward, Calif., USA).

[2] = biological target: T1, human CC chemokine receptor 4 (CCR4); experiment: competition flow cytometry on CCRF-CEM cells: unlabelled competitor against ca. 20 nM biotinylated MDC, streptavidin-PE [d]
Experimental: The competition binding assays were performed with biotinylated MDC or biotinylated TARC on DT-40-CCR4+ and CCRF-CEM cells. DT40 and CCRF-CEM cells were cultured as described in Example 2. TARC and MDC were biotinylated using standard procedures. The biotinylation process causes some losses, so the concentrations of biotinylated MDC and TARC recited herein are approximate.
The cells were harvested from culture flasks, washed 2 times with PBS (400×g, 5 min, 4° C.) and resuspended in PBS containing 0.2% BSA and 0.09% NaN3. 1×10^5 cells per well were aliquoted into V-shaped 96-well plates (Greiner Bio-One, Frikenhausen, Germany). Cells were centrifuged (400×g, 5 min, 4° C.) and resuspended in 50 μl IgG, single chain or unlabeled ligand (1:10 dilution series starting on 100/500/26, 4 μg/ml) mixed with a fixed concentration of biotinylated ligand (10 or 20 nM, see legend to FIG. 24). The cells were incubated for 2 hours at 4° C. and mixed with a pipette every 45 min. The cells were washed three times with 150 μl PBS with 0.2% BSA and 0.09% NaN3 and stained with 3 μg/ml streptavidin PE (BD Biosciences) for 45 minutes at 4° C. […] Apparent binding affinities (KD) were calculated according to the following equation derived from previously described methods (Kipriyanov et al, 1997b; Schodin & Kranz, 1993): […]

[3] = biological target: T1, human CC chemokine receptor 4 (CCR4); experiment: cell-based or functional assay
[4] = biological target: T1, human CC chemokine receptor 4 (CCR4); experiment: flow cytometry, IgG titration on CCR4+ DT40 cells; one site-specific binding fit (Prism); IgG titration on CCR4+ DT40 cells
Experimental: (§1) The IgG forms of antibodies 17G, 9E and KM3060var using various CCR4⁺ cell types were used (see Example 2).
(§2) For the flow cytometry experiments, the cells were harvested from the culture flasks, washed 2 times with PBS, re-suspended in PBS with 0.2% BSA and 0.09% NaN₃ and finally aliquoted 1×10⁵ cells per well into V-shaped 96-well plates (Greiner Bio-One, Frickenhausen, Germany). Cells were centrifuged at 400×g for 5 min and then incubated at 4° C. for 45 min with different antibody dilutions.
(§3) After washing with PBS with 0.2% BSA and 0.09% NaN₃, the cells were stained with 10 μg/ml of RPE-conjugated goat anti-human IgG (AbDSerotec, Düsseldorf, Germany) for 30 minutes at 4° C. The stained cells were washed, re-suspended in 200 μl PBS with 0.2% BSA and 0.09% NaN₃ and transferred to a U-shaped 96-well plate (Corning, Schiphol-Rijk, The Netherlands) for acquisition on EasyCyte flow cytometer (Guava Technologies, Hayward, Calif., USA).

[5] = biological target: T1, human CC chemokine receptor 4 (CCR4); experiment: cell-based or functional assay; remark: listed apart in the source
[6] = biological target: T1, human CC chemokine receptor 4 (CCR4); experiment: flow cytometry, IgG titration on CCRF-CEM cells; one site-specific binding fit (Prism); IgG titration on CCRF-CEM cells (natural CCR4+ line)
Experimental: as §1, §2, §3

[7] = biological target: T1, human CC chemokine receptor 4 (CCR4); experiment: competition flow cytometry on CCR4-transfected DT40 cells: unlabelled IgG against 6.8 nM biotinylated KM3060var IgG, streptavidin-RPE
Experimental: To analyze the epitope binding of anti-CCR4 antibodies 17G, 9E and KM3060var, competition experiments were performed using flow cytometry. The binding of biotinylated antibodies to CCR4 transfected DT40-cells was challenged in the presence of different concentrations of non-biotinylated anti-CCR4 antibodies. The CCR4⁺ DT40 cells were harvested from culture flasks, washed 2 times with PBS, re-suspended in PBS with 0.2% BSA and 0.09% NaN₃ and finally aliquoted 1×10⁵ cells per well into V-shaped 96-well plates (Greiner Bio-One, Frickenhausen, Germany). Cells were centrifuged at 400×g for 5 min and then incubated at 4° C. for 3-4 hours with fixed amounts of biotinylated IgG and different concentrations of non-biotinylated antibodies. After washing with PBS with 0.2% BSA and 0.09% NaN₃, the cells were stained with 2.5 μg/ml of Streptavidin—RPE (BD Pharmingen, San Diego, Calif., USA) for 30 minutes at 4° C. The stained cells were washed, re-suspended in 250 μl PBS with 0.2% BSA and 0.09% NaN₃ and transferred to a U-shaped 96-well plate (Corning, Schiphol-Rijk, The Netherlands) for acquisition on EasyCyte flow cytometer (Guava Technologies, Hayward, Calif., USA). The results shown in FIGS. 10 A, B and C illustrate that the 17G and 9E antibodies have epitopes that are identical or at least overlapping.

[8] = biological target: T1, human CC chemokine receptor 4 (CCR4); experiment: cell-based or functional assay; remark: listed apart in the source
[9] = biological target: T1, human CC chemokine receptor 4 (CCR4); experiment: flow cytometry, IgG titration on CCR4+ DT40 cells (2); one site-specific binding fit (Prism); IgG titration on CCR4+ DT40 cells, second experiment, DT40 (2)
Experimental: as §1, §2, §3

[10] = biological target: T1, human CC chemokine receptor 4 (CCR4); experiment: flow cytometry, IgG titration on CCR4+ HEK293T cells; one site-specific binding fit (Prism); IgG titration on CCR4+ HEK293T cells
Experimental: as §1, §2, §3

[11] = biological target: T1, human CC chemokine receptor 4 (CCR4); experiment: flow cytometry, IgG titration on DT-40 CCR4+ cells, anti-human-FITC, MFI [a]
Experimental: The quality of the specific binding to DT40+ cells was tested for 9E1 D and 9E10J in scFv or IgG format in a titration experiment.
Alternatively, 9E1D and 9E10J were converted into the full-length human IgG1 and tested for cell binding. The DT40+CCR4 and DT40 cells were harvested from culture flasks, washed 2 times with PBS (400×g, 5 min, 4° C.) and resuspended in PBS containing 0.2% BSA and 0.09% NaN₃. 1×10⁵ cells per well were aliquoted into V-shaped 96-well plates (Greiner Bio-One, Frikenhausen, Germany). Cells were centrifuged (400×g, 5 min, 4° C.) and resuspended in a 1:5 dilution series of IgG starting on 10 μg/ml (50 μl/well). After 1 hour incubation at 4° C., the cells were washed three times with 150 μl PBS with 0.2% BSA and 0.09% NaN₃ and stained with 2.5 μg/ml RPE conjugated goat anti-human IgG (AbDSerotec, Düsseldorf, Germany) or 2.5 μg/ml anti human IgG Fc (goat polyclonal aff. pur) FITC (Sigma Aldrich) for 45 minutes at 4° C. Cells were washed, resuspended in 200 μl PBS with 0.2% BSA and 0.09% NaN₃, and transferred to a U-shaped 96 well Costar (Corning, Schiphol-Rijik, The Netherlands) plate for flow cytometry using an Easy Cyte device (Guava Technologies, Hayward, Calif., USA) or FACS Canto II flow cytometer (BD Biosciences, Heidelberg, Germany).

[12] = biological target: T1, human CC chemokine receptor 4 (CCR4); experiment: IgG1 expressed from pLNO, purified; method not told there

B1: 9E scFv (scFv)
scFv: QVQLVQSGAEVKKPGSSVKVSCKASGGTFSNYAISWVRQAPGQGLEWMGGIIPIFGTANYAQKFQGRVTITADESTSTAYMELSSLRSEDTAVYYCARRGGSYFDYWGQGTLVTVSSKLSGSASAPKLEEGEFSEARVSYVLTQPPSASGTPGQSVTISCSGSTSNIGSHYVFWYQQLPGTAPRLLIYRNHQRPSGVPDRLSGSKSGTSASLAISGLRSEDEADYYCAVWDDTLSGWVFGGGTKLTVLAAAGSEQKLISEEDLNSHHHHHH
notes: For staining the scFv was pre-incubated with an anti-c-myc antibody with human Fc (cross-linked, dimer-like); also called scFv 9E
- Kd [1]: 4.95 nM

B2: 9E10J scFv (scFv)
scFv: B1 scFv with N31S, I70M, A72R, E74T, A79V
notes: also called scFv 9E10J
- IC50 (read off the curve) [2]: ~200 nM
- Kd [1]: 1.17 nM

B3: 9E1D scFv (scFv)
scFv: QVQLVQSGAEVKKPGSSVKVSCKASGGTFSNYAISWVRQAPGQGLEWMGGIIPIFGTANYAQKFQGRVTITADESTSTAYMELSSLRSEDTAVYYCARRGGSYFDYWGQGTLVTVSSKLSGSASAPKLEEGEFSEARVQPVLTQPPSASGTPGQRVTISCSGGGSNIGRRFVNWYQQLPGTAPKLLIYRNNQRPSGVPDRFSGSKSGTSASLVISGLRSEDEADYYCAAWDDSLSGWVFGGGTKLTVLAAAGSEQKLISEEDLNSHHHHHH
notes: also called scFv 9E1D
- Kd [1]: 5.22 nM

B4: KM3060var IgG (antibody, V domains shown)
VH: EVQLVESGGDLMKPGGSLKISCAASGFIFSNYGMSWVRQTPDMRLEWVATISSASTYSYYPDSVKGRFTISRDNAENSLYLQMNSLRSEDTGIYYCGRHSDGNFAFGYWGRGTLVTVSS
VL: DVLMTQTPLSLPVSLGDQASISCRSSRNIVHINGDTYLEWYLQRPGQSPKLLIYKVSNRFSGVPDRFSGSGSGTDFTLKISRVEAEDLGVYYCFQGSLLPWTFGGGTRLEIK
notes: Corresponds to KM3060 expressed in a different host; also called comparator KM3060var
- Ca++ flux in CCRF-CEM cells: signal response to MDC stimulation (% of MDC in the absence of IgGs), IgG 10 µg/mL [3]: 92%
- Ca++ flux in CCRF-CEM cells: signal response to TARC stimulation (% of TARC alone), IgG 10 µg/mL [3]: 104%
- Kd [4]: 3.67 nM
- ADCC of CCRF-CEM cells, EC50 (mean, N=3) [5]: 0.405 µg/mL
- Kd [6]: 79.8 nM
- IC50 (read off the curve) [7]: ~6 nM
- ADCC of CCRF-CEM cells, EC50 (mean, N=3) [8]: 0.367 µg/mL
- Kd [9]: 4.82 nM
- Kd [10]: 11.4 nM

B5: defucosylated 9E10J IgG (antibody, V domains shown)
VH: QVQLVQSGAEVKKPGSSVKVSCKASGGTFSSYAISWVRQAPGQGLEWMGGIIPIFGTANYAQKFQGRVTMTRDTSTSTVYMELSSLRSEDTAVYYCARRGGSYFDYWGQGTLVTVSS
VL: SYVLTQPPSASGTPGQSVTISCSGSTSNIGSHYVFWYQQLPGTAPRLLIYRNHQRPSGVPDRLSGSKSGTSASLAISGLRSEDEADYYCAVWDDTLSGWVFGGGTKLTVLG
modifications: Fc glycans defucosylated (IgG produced in the presence of Kifunensine, 100 ng/ml)
- ADCC of CCRF-CEM cells, EC50 (mean, N=4) [5]: 0.0021 µg/mL

B6: 9E1D IgG (full length human IgG1, lambda) (antibody, V domains shown)
VH: B5 VH with S31N, M70I, R72A, T74E, V79A
VL: QPVLTQPPSASGTPGQRVTISCSGGGSNIGRRFVNWYQQLPGTAPKLLIYRNNQRPSGVPDRFSGSKSGTSASLVISGLRSEDEADYYCAAWDDSLSGWVFGGGTKLTVLG
- binding result [11]: binds

B7: 11F IgG (full length human IgG1, kappa) (antibody, V domains shown)
VH: not shown
VL: ETTLTQSPGTLSLSPGEGVTLSCRASQSVNRRYLAWYQQKPGQAPRLLIYGASSRATGIPDRFSGSGSGTDFTLTISRLEPEDFAVYYCQQYGSSPLTFGGGTKVEIKR
- binding result [12]: binds
